Paper PMC7505815, “Estrogen receptor alpha (ERα)–mediated coregulator binding and gene expression discriminates the toxic ERα agonist diethylstilbestrol (DES) from the endogenous ERα agonist 17β-estradiol (E2)” (Cell Biology and Toxicology, 2020)

Molecular target: T1, Polyhistidine (His) tagged ERα ligand binding domain (amino acids 302–552) (UniProt P03372 302-552)
T1 construct: Detected on the array by a penta-His Alexa Fluor 488 antibody; Always tested with E2, DES or solvent (2% DMSO); also called ERα-LBD; source: partly purified from Escherichia coli (Qiagen)
T1 sequence (looked up): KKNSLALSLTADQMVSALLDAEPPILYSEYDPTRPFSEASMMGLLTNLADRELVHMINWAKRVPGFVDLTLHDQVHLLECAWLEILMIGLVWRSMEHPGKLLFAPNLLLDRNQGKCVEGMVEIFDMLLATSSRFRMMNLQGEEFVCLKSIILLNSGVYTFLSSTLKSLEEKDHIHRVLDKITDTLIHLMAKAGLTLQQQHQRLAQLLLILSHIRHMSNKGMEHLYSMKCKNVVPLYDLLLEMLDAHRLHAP
Test: peptide or protein array; MARCoNI, PamChip peptide microarray: coregulator motif peptides immobilised; His-ERα-LBD 10 nM (partly purified) in solution with E2 (10^-12 to 10^-5 M), detected with penta-His Alexa Fluor 488 antibody 25 nM; 20 °C; 20 mM Tris-HCl pH 7.5, 500 mM NaCl, 0.2% BSA, 0.05% Tween 20, 2% DMSO
Settings: both partners purified

B1: TRRAP_3535_3557_C3535S/C3555S (peptide, UniProt Q9Y4A5 3535-3557, looked up)
peptide: SLTESRREERVLQLLRLLNPSLE
notes: Immobilised on the PamChip; also called TRRAP_3535_3557_C3535S/C3535S; source: bought: PamChip peptide microarray, PamGene International BV
  binding result: binds
